What was measured:
[1] = molecular target: BA.2スパイクRBD (SARS-CoV-2 Omicron BA.2)
[2] = molecular target: BA.5スパイクRBD (SARS-CoV-2 Omicron BA.5)

Row | Binder | Kd [1] [nM] | Kd [2] [nM]
1 | MO1 (antibody, V domains shown) VH: EVQLVESGGGMVQPGRSLRLSCAASGFTFDDYAMHWVRQIPGKGLEWVSGISWNSGDIGYADSVKGRFTISRDNAKNSLHLQMNSLRAEDTALYYCAKDKTYDSPGYFLNSFDYWGQGTLVTVSS VL: DIQMTQSPSSLSASVGDRVTITCRASQGISSYLVWYQQKPGKAPKFLIYAASTLQSGVPSRFSGSGSGTDFTLTISSLQPEDFATYYCQQLYSYPITFGQGTRLEIK | 3.3 | 11
2 | MO2 (antibody, V domains shown) VH: EVQLVESGGGLVKPGGSLSLSCVASGFTFSDYRMSWIRQAPGKGLEWVSYISSSSGYKDYADSVKGRFTISRDNAKNSLSLQMNSLRVEDTAVYYCARDVGVVTATPGYWGQGVPVSVSS VL: DIVMTQSPATLSVSPGERATLSCRASQSVGSNLAWYQQKPGQAPRLLIYDTSTRATGVPARFSGSGSGTDFTLTISSLQSEDFAVYLCHQYDQWPPAFGPGTRVDIK | 2 | –
